{"source": "the supplement of paper PMC10567573", "parents": {"B1": {"name": "ZNF232 (parent)", "chain": "HSGEKPFICKECGKAYGWCSELIR"}}}
{"variants_of": "B1", "assay": "protein stability index of a GFP-peptide fusion (GPS, HEK-293T) (PSI 1-6); higher = more stable", "conditions": "c terminus: a fixed tail appended"}
{"variant": "HSGEKPFICKECGKAYGWCSEIIR", "note": "[L22I]", "protein stability index": 1.73}
{"variant": "HSGEKPFICKECGKAYGWCSEWIR", "note": "[L22W]", "protein stability index": 1.67}
{"variant": "HSGEKPFICKECGKAYGWCSETIR", "note": "[L22T]", "protein stability index": 1.72}
{"variant": "HSGEKPFICKECGKAYGWCSEMIR", "note": "[L22M]", "protein stability index": 2.08}
{"variant": "HSGEKPFICKECGKAYGWCSEQIR", "note": "[L22Q]", "protein stability index": 1.65}
{"variant": "HSGEKPFICKECGKAYGWCSEEIR", "note": "[L22E]", "protein stability index": 2.11}
{"variant": "HSGEKPFICKECGKAYGWCSESIR", "note": "[L22S]", "protein stability index": 1.92}
{"variant": "HSGEKPFICKECGKAYGWCSEHIR", "note": "[L22H]", "protein stability index": 3.29}
{"variant": "HSGEKPFICKECGKAYGWCSEGIR", "note": "[L22G]", "protein stability index": 2}
{"variant": "HSGEKPFICKECGKAYGWCSENIR", "note": "[L22N]", "protein stability index": 1.81}
{"variant": "HSGEKPFICKECGKAYGWCSEAIR", "note": "[L22A]", "protein stability index": 2.24}
{"variant": "HSGEKPFICKECGKAYGWCSEFIR", "note": "[L22F]", "protein stability index": 1.94}
{"variant": "HSGEKPFICKECGKAYGWCSEKIR", "note": "[L22K]", "protein stability index": 1.96}
{"variant": "HSGEKPFICKECGKAYGWCSERIR", "note": "[L22R]", "protein stability index": 2.08}
{"variant": "HSGEKPFICKECGKAYGWCSECIR", "note": "[L22C]", "protein stability index": 4.76}
{"variant": "HSGEKPFICKECGKAYGWCSEDIR", "note": "[L22D]", "protein stability index": 2.3}
{"variant": "HSGEKPFICKECGKAYGWCSEVIR", "note": "[L22V]", "protein stability index": 2.09}
{"variant": "HSGEKPFICKECGKAYGWCSEYIR", "note": "[L22Y]", "protein stability index": 2.18}
{"variant": "HSGEKPFICKECGKAYGWCSEPIR", "note": "[L22P]", "protein stability index": 3.26}
{"variant": "HSGEKPFICKECGKLYGWCSELIR", "note": "[A15L]", "protein stability index": 1.49}
{"variant": "HSGEKPFICKECGKVYGWCSELIR", "note": "[A15V]", "protein stability index": 2.01}
{"variant": "HSGEKPFICKECGKGYGWCSELIR", "note": "[A15G]", "protein stability index": 1.45}
{"variant": "HSGEKPFICKECGKSYGWCSELIR", "note": "[A15S]", "protein stability index": 2.14}
{"variant": "HSGEKPFICKECGKQYGWCSELIR", "note": "[A15Q]", "protein stability index": 2.11}
{"variant": "HSGEKPFICKECGKCYGWCSELIR", "note": "[A15C]", "protein stability index": 2.76}
{"variant": "HSGEKPFICKECGKFYGWCSELIR", "note": "[A15F]", "protein stability index": 1.92}
{"variant": "HSGEKPFICKECGKRYGWCSELIR", "note": "[A15R]", "protein stability index": 2.14}
{"variant": "HSGEKPFICKECGKIYGWCSELIR", "note": "[A15I]", "protein stability index": 2.34}
{"variant": "HSGEKPFICKECGKTYGWCSELIR", "note": "[A15T]", "protein stability index": 2.05}
{"variant": "HSGEKPFICKECGKPYGWCSELIR", "note": "[A15P]", "protein stability index": 2.29}
{"variant": "HSGEKPFICKECGKNYGWCSELIR", "note": "[A15N]", "protein stability index": 1.83}
{"variant": "HSGEKPFICKECGKDYGWCSELIR", "note": "[A15D]", "protein stability index": 1.69}
{"variant": "HSGEKPFICKECGKYYGWCSELIR", "note": "[A15Y]", "protein stability index": 1.85}
{"variant": "HSGEKPFICKECGKHYGWCSELIR", "note": "[A15H]", "protein stability index": 1.89}
{"variant": "HSGEKPFICKECGKKYGWCSELIR", "note": "[A15K]", "protein stability index": 1.69}
{"variant": "HSGEKPFICKECGKEYGWCSELIR", "note": "[A15E]", "protein stability index": 1.81}
{"variant": "HSGEKPFICKECGKMYGWCSELIR", "note": "[A15M]", "protein stability index": 1.9}
{"variant": "HSGEKPFICKECGKWYGWCSELIR", "note": "[A15W]", "protein stability index": 1.75}
{"variant": "HSGEKPFICKECGKAYGWISELIR", "note": "[C19I]", "protein stability index": 1.89}
{"variant": "HSGEKPFICKECGKAYGWRSELIR", "note": "[C19R]", "protein stability index": 1.73}
{"variant": "HSGEKPFICKECGKAYGWKSELIR", "note": "[C19K]", "protein stability index": 2.08}
{"variant": "HSGEKPFICKECGKAYGWLSELIR", "note": "[C19L]", "protein stability index": 1.69}
{"variant": "HSGEKPFICKECGKAYGWNSELIR", "note": "[C19N]", "protein stability index": 2.08}
{"variant": "HSGEKPFICKECGKAYGWESELIR", "note": "[C19E]", "protein stability index": 2.5}
{"variant": "HSGEKPFICKECGKAYGWYSELIR", "note": "[C19Y]", "protein stability index": 1.54}
{"variant": "HSGEKPFICKECGKAYGWWSELIR", "note": "[C19W]", "protein stability index": 1.37}
{"variant": "HSGEKPFICKECGKAYGWDSELIR", "note": "[C19D]", "protein stability index": 1.94}
{"variant": "HSGEKPFICKECGKAYGWSSELIR", "note": "[C19S]", "protein stability index": 2.83}
{"variant": "HSGEKPFICKECGKAYGWPSELIR", "note": "[C19P]", "protein stability index": 2.03}
{"variant": "HSGEKPFICKECGKAYGWVSELIR", "note": "[C19V]", "protein stability index": 1.68}
{"variant": "HSGEKPFICKECGKAYGWMSELIR", "note": "[C19M]", "protein stability index": 2.13}
{"variant": "HSGEKPFICKECGKAYGWTSELIR", "note": "[C19T]", "protein stability index": 2.09}
{"variant": "HSGEKPFICKECGKAYGWHSELIR", "note": "[C19H]", "protein stability index": 1.82}
{"variant": "HSGEKPFICKECGKAYGWASELIR", "note": "[C19A]", "protein stability index": 2.06}
{"variant": "HSGEKPFICKECGKAYGWGSELIR", "note": "[C19G]", "protein stability index": 1.89}
{"variant": "HSGEKPFICKECGKAYGWQSELIR", "note": "[C19Q]", "protein stability index": 2.39}
{"variant": "HSGEKPFICKECGKAYGWFSELIR", "note": "[C19F]", "protein stability index": 1.69}
{"variant": "HSGEKPFICKECGKAYGWCSNLIR", "note": "[E21N]", "protein stability index": 1.38}
{"variant": "HSGEKPFICKECGKAYGWCSWLIR", "note": "[E21W]", "protein stability index": 2.11}
{"variant": "HSGEKPFICKECGKAYGWCSALIR", "note": "[E21A]", "protein stability index": 2.27}
{"variant": "HSGEKPFICKECGKAYGWCSKLIR", "note": "[E21K]", "protein stability index": 2.26}
{"variant": "HSGEKPFICKECGKAYGWCSRLIR", "note": "[E21R]", "protein stability index": 1.99}
{"variant": "HSGEKPFICKECGKAYGWCSVLIR", "note": "[E21V]", "protein stability index": 2.84}
{"variant": "HSGEKPFICKECGKAYGWCSLLIR", "note": "[E21L]", "protein stability index": 2.2}
{"variant": "HSGEKPFICKECGKAYGWCSMLIR", "note": "[E21M]", "protein stability index": 2.07}
{"variant": "HSGEKPFICKECGKAYGWCSILIR", "note": "[E21I]", "protein stability index": 2.07}
{"variant": "HSGEKPFICKECGKAYGWCSPLIR", "note": "[E21P]", "protein stability index": 2.5}
{"variant": "HSGEKPFICKECGKAYGWCSCLIR", "note": "[E21C]", "protein stability index": 2.8}
{"variant": "HSGEKPFICKECGKAYGWCSYLIR", "note": "[E21Y]", "protein stability index": 2.12}
{"variant": "HSGEKPFICKECGKAYGWCSSLIR", "note": "[E21S]", "protein stability index": 1.21}
{"variant": "HSGEKPFICKECGKAYGWCSGLIR", "note": "[E21G]", "protein stability index": 2.18}
{"variant": "HSGEKPFICKECGKAYGWCSHLIR", "note": "[E21H]", "protein stability index": 3.87}
{"variant": "HSGEKPFICKECGKAYGWCSFLIR", "note": "[E21F]", "protein stability index": 1.92}
{"variant": "HSGEKPFICKECGKAYGWCSQLIR", "note": "[E21Q]", "protein stability index": 2.31}
{"variant": "HSGEKPFICKECGKAYGWCSTLIR", "note": "[E21T]", "protein stability index": 2.3}
{"variant": "HSGEKPFICKECGKAYGWCSDLIR", "note": "[E21D]", "protein stability index": 1.86}
{"variant": "HSGEKPFICKECGKAYGFCSELIR", "note": "[W18F]", "protein stability index": 1.55}
{"variant": "HSGEKPFICKECGKAYGRCSELIR", "note": "[W18R]", "protein stability index": 1.9}
{"variant": "HSGEKPFICKECGKAYGYCSELIR", "note": "[W18Y]", "protein stability index": 1.79}
{"variant": "HSGEKPFICKECGKAYGICSELIR", "note": "[W18I]", "protein stability index": 2.46}
{"variant": "HSGEKPFICKECGKAYGTCSELIR", "note": "[W18T]", "protein stability index": 1.83}
{"variant": "HSGEKPFICKECGKAYGMCSELIR", "note": "[W18M]", "protein stability index": 2.57}
{"variant": "HSGEKPFICKECGKAYGLCSELIR", "note": "[W18L]", "protein stability index": 2.09}
{"variant": "HSGEKPFICKECGKAYGGCSELIR", "note": "[W18G]", "protein stability index": 2.43}
{"variant": "HSGEKPFICKECGKAYGVCSELIR", "note": "[W18V]", "protein stability index": 2.25}
{"variant": "HSGEKPFICKECGKAYGQCSELIR", "note": "[W18Q]", "protein stability index": 2.49}
{"variant": "HSGEKPFICKECGKAYGKCSELIR", "note": "[W18K]", "protein stability index": 1.78}
{"variant": "HSGEKPFICKECGKAYGACSELIR", "note": "[W18A]", "protein stability index": 1.85}
{"variant": "HSGEKPFICKECGKAYGDCSELIR", "note": "[W18D]", "protein stability index": 2.67}
{"variant": "HSGEKPFICKECGKAYGNCSELIR", "note": "[W18N]", "protein stability index": 2.03}
{"variant": "HSGEKPFICKECGKAYGCCSELIR", "note": "[W18C]", "protein stability index": 2.18}
{"variant": "HSGEKPFICKECGKAYGECSELIR", "note": "[W18E]", "protein stability index": 2.95}
{"variant": "HSGEKPFICKECGKAYGPCSELIR", "note": "[W18P]", "protein stability index": 1.81}
{"variant": "HSGEKPFICKECGKAYGHCSELIR", "note": "[W18H]", "protein stability index": 2.28}
